Measurements: patent US20040071656A1, “Modulation of heat-shock-protein-based immunotherapies” (priority 2001, published 2004)

Target: T1, exoplasmic domain of human CD40 (GST-CD40) (Homo sapiens, UniProt P25942)
T1 construct: The cDNA for the exoplasmic domain of CD40 (amino acids 20-212); made in house; host or cells: E. coli, pGEX-2T
Assay: GST-CD40 binding and competition assay with recombinant Hsp70 and its domains
Description: For binding assays with recombinant Hsp70 and its domains, 3 μM His6-Hsp70 or its His6-tagged domains were incubated with 2 mM ATP, 2 mM ADP or 2 mM ADP and 28 μM peptide C in 50 μl binding buffer (10 mM MOPS/KOH, pH 7.2, 150 mM KCl and 3 mM MgCl2) for 30 min at 37° C. In competition experiments binding was probed with either a 10-fold excess of Hsp70, the two domains, or DnaK, or with a 5-fold excess of Hip or Bag 1 for 10 min at 0° C. To this end, Hsp70, N70, C70 and DnaK were preincubated with ADP, ATP and peptide C as described above. For comparison of CD40 binding of Hsp70 and its N-terminal domain, Hsp70 was preincubated in the presence or absence (mock treatment) of a 30-fold molar excess of peptide C. 3 μM of GST or GST-CD40 was added to the samples and incubated for 20 min at 16° C. For titration of peptide C, 5- to 50-fold excess of peptide C (15-150 μM) was added to the preincubation of Hsp70. Thereafter the samples were combined with 20 μl of 1% BSA-treated Glutathione Sepharose 4 Fast Flow and incubated in the presence of 2 mM DTT for another 20 min at 16° C. Unbound proteins were removed by washing the beads three times with 1 ml PBS, and immobilized proteins eluted with 30 μl elution buffer for 20 min at 22° C. 10 μl of the eluates were subjected to SDS-PAGE and analyzed by immunoblotting using a Penta-His-antibody (Quiagen). Blot signals were quantified by Quantity One (Biorad).
Details for FIG. 3. Binding of Hsp70 to CD40 is direct and depends on ADP. A. Hela-cell lysates were incubated with GST (control), or GST-CD40 in the amounts indicated. Thereafter samples were affinity purified on glutathione-Sepharose as outlined in Experimental Procedures, subjected to SDS-PAGE and analyzed by immunoblotting with antibodies directed against Hsc70 and Hsp70 (upper lanes), and against Hsp90 (lower lanes). B. Human recombinant His6-tagged Hsp70 was incubated with ATP, ADP, or an excess of peptide C, followed by addition of GST-CD40 or GST alone. After affinity purification samples were analyzed by immunoblotting as described in A, using antibodies directed against the His6-tag. C. Recombinant human His6-tagged Hsp70 was incubated with peptide C, either in the presence or absence of ADP. The reactions were then incubated with ANA1-cell lysates as described in Experimental Procedures. Protein bound to Hsp70 was analyzed by affinity purification on Ni-NTA-agarose and immunoblotting with antibodies directed against CD40.
Details for FIG. 4. Hsp70 binding to CD40 is mediated by the N-terminal ATPase domain and is competed by Hip. A. Human His6-tagged Hsp70, its N- or C-terminal domains, or recombinant bacterial DnaK was incubated either with GST-CD40, or with GST. B. Recombinant DnaK was incubated with ATP, ADP, or an excess of peptide C, followed by addition of GST-CD40 or GST alone. C. His6-tagged N-terminal domain of Hsp70 (N70) was incubated in the presence of ATP or ADP, followed by incubation with a 10-fold molar excess of Hsp70 in the presence of ADP or ATP. D: Recombinant human His6-tagged Hsp70 protein was incubated with a 5-fold molar excess of either recombinant Hip protein or Bag-1, and with GST-CD40 or GST as a control. Bound protein was analyzed after affinity purification on glutathione-Sepharose by immunoblotting with an antibody directed against the N-terminal His6-tags or with an antibody directed against DnaK.
Details for FIG. 5. Peptide substrate stimulates Hsp70 binding to CD40. A. His6-tagged Hsp70 was incubated with increasing concentrations of peptide C as indicated in the Figure, and binding to GST-CD40 analyzed by immunoblotting with antibodies directed against the His6-tag. The lower panel is a quantitation of the data. B. Equivalent concentrations (3 μM) of His6-tagged Hsp70 (in the presence of a 30-fold molar excess of peptide C) or His6-tagged N70 was incubated with GST-CD40, and bound protein was analyzed as described above.

T1 sequence (P25942 20-212): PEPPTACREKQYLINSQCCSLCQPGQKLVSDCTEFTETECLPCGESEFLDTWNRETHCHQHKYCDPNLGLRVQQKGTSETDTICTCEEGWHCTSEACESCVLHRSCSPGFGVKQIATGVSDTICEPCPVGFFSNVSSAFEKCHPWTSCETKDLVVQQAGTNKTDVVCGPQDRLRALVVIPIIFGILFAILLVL

binding efficiency to CD40, substrate-saturated Hsp70 versus N-terminal domain (3 μM each, ADP states, Hsp70 with 30-fold molar excess of peptide C) | competition for the binding of full-length Hsp70 to CD40 (ADP, 5-fold molar excess of competitor) | Hsp70 binding to CD40 in the presence of ADP (3 μM His6-Hsp70, 2 mM ADP) | Hsp70 binding to CD40 in the presence of ATP (3 μM His6-Hsp70, 2 mM ATP) | Substance | direct binding to CD40 (GST-CD40 pull down), nucleotide dependence (ADP versus ATP)
bound to CD40 with similar efficiencies | efficiently competed | – | – | N70: Recombinant N-terminal ATPase domain of human Hsp70, residues 5-381 (SEQ ID NO: 1) | bound to CD40 in the presence of ADP but not ATP
– | – | only seen in the presence of ADP | barely detectable | Hsp70: Recombinant human heat shock protein 70, expressed and purified as His-tagged protein | –
